The record followed here is patent US7052692.

Series [1] concerns the target D-sequence-binding protein (D-BP) (human). The experiment in a line: cell-based or functional assay.
For series [2], the system named is D-sequence-binding protein (D-BP), dephosphorylated form.

As for “human epidermal growth factor receptor (EGF-R) (from UniProt P00533 25-1210)”, in series [1], the Ratio of dephosphorylated/phosphorylated ssD-BP, EGF-R-transfected 293 clone 293-4 amounted to 0.31; the Ratio of dephosphorylated/phosphorylated ssD-BP, EGF-R-transfected 293 clone 293-5 was determined as 0.45; the Ratio of dephosphorylated/phosphorylated ssD-BP, EGF-R-transfected 293 clone 293-6 is 0.36; the Ratio of dephosphorylated/phosphorylated ssD-BP, EGF-R-transfected 293 clone 293-8 was 0.51. In series [1], the Ratio of dephosphorylated/phosphorylated ssD-BP, EGF-R-transfected 293 clone 293-12 came out at 0.64; the Ratio of dephosphorylated/phosphorylated ssD-BP, control untransfected 293 cells is 3.5; the Ratio of dephosphorylated/phosphorylated ssD-BPs, average of the EGF-R-transfected 293 cell clones turned out to be 0.45.
With purified EGF-R PTK (CalBiochem), the “in vitro phosphorylation assay followed by EMSA with the D(-) probe” value in series [2] was “incubation of the ssD-BP with the purified EGF-R PTK resulted in phosphorylation of this protein whereas incubation in the presence of ATP alone had no effect”.
